Values of other authors in patent US9867860B2, “Formulations for preventing and treating decreasing platelet cell counts” (priority 2013, dated 2018).

Legend:
[1] = test system: thrombocytopenia; settings: Vitamin B12 and folate together, deficiency
[2] = test system: patients with ITP and liver disease; settings: for side effects: human, in vivo
[3] = test system: refractory immune thrombocytopenia; settings: two cases; high-dose vitamin D supplementation and hydroxychloroquine in combination
[4] = test system: thrombocytopenia associated with chemotherapy, HCV infection, or early liver cirrhosis
[5] = test system: patients with solid tumors who had previously received platelet transfusion because of myelosuppression; settings: randomized, placebo-controlled trial
[6] = test system: myelosuppressed mice

Vitamin B12
correction of thrombocytopenia on repletion [1]: rapidly corrects

CC1=NN(c2ccc(C)c(C)c2)C(=O)/C1=N\Nc1cccc(-c2cccc(C(=O)O)c2)c1O [Eltrombopag]
side effects [2]: bone marrow fibrosis, thrombosis, and ocular toxicities

Romiplostim
side effects [2]: bone marrow fibrosis, thrombosis, and ocular toxicities | platelet count ([2]; patients with ITP and liver disease, continuous treatment): increase platelet count

vitamin D
treatment outcome of refractory immune thrombocytopenia [3]: successfully treated

CCN(CCO)CCCC(C)Nc1ccnc2cc(Cl)ccc12 (stereo not shown) [hydroxychloroquine, reference compound]
treatment outcome of refractory immune thrombocytopenia [3]: successfully treated

B1: IL-11: recombinant human IL-11, cytokine stimulating megakaryocyte maturation (protein, UniProt P20809 22-199, looked up)
Interleukin-11: PGPPPGPPRVSPDPRAELDSTVLLTRSLLADTRQLAAQLRDKFPADGDHNLDSLPTLAMSAGALGALQLPGVLTRLRADLLSYLRHVQWLRRAGGSSLKTLEPELGTLQARLDRLLRRLQLLMSRLALPQPPPDPPAPPLAPPSSAWGGIRAAHAILGGLHLTLDWAVRGLLLLKTRL
other side effects ([4]; human, in vivo): dyspnea, atrial arrhythmias, syncope, and fatigue | side effect: edema, share of patients ([4]; human, in vivo): more than 50 % of patients | correction of thrombocytopenia ([4]; thrombocytopenia associated with chemotherapy, HCV infection, or early liver cirrhosis, in some degree): could correct thrombocytopenia | reduction of the number of patients in need of platelet transfusions [5]: 26% | platelet counts, IL-11 group versus peanut skins extract group ([6]; d7): significantly higher | platelet counts versus control thrombocytopenia group ([6]; d7, subcutaneous): significantly improved | platelet counts ([6]; d10, subcutaneous): further improved
